Test results reported in US11957762B2, “Immune tolerant and non-immune tolerant elastin-like recombinant peptides and methods of use” (University of Utah Research Foundation, priority 2015, dated 2024).
Several values for one entry are separate records, joined by “and”; a condition that tells them apart may be missing. Identical values can stand only once.

Legend:
B3Z cells = assay: B3Z CD8+ T cell hybridoma activation assay; assay type: cell-based; conditions: DC2.4 cells pre-incubated with antigen
Protocol: B3Z CD8+ T cell hybridoma activation assay. B3Z cells (a gift from N. Shastri) are a CD8+ T-cell hybridoma engineered to secrete β-galactosidase when their T-cell receptors are engaged with an […]:H2K^b complex.^(33) To do this assay, 1×10^5 DC2.4 cells/well were set in 96-well plates. OVA, […] peptide (SEQ ID NO: 22), and iTEP-pOVA NP (SEQ ID NO: 56) at indicated concentrations were loaded into the cell culture for 16 hours and then washed away. 1×10^5 B3Z cells/well were added to the DC2.4 cell culture and co-cultured with DC2.4 cells for 24 hours. The cells were washed with PBS before 100 μL of lysis buffer (PBS with 100 mM 2-mercaptoethanol, 9 mM MgCl2, 0.125% NP-40) together with 0.15 mM chlorophenol red β-galactoside were added into the wells. After the plates were incubated at 37° C. for 4 hours, the reaction was stopped with 50 μL/well of 15 mM EDTA and 300 mM glycine. The OD at 570 nm was measured and the OD at 630 nm was used as reference. The OD was used as an indicator as activation status of B3Z cells.
Activation of B3Z hybridoma (CD8+T) cells. This assay was done with a protocol described previously (Cho et al., J Drug Target, 2015; p 1-12).

C57BL/6 mice = assay: In vivo CTL response by ELISPOT IFN-γ assay; set-up: species or system mouse; conditions: subcutaneous immunization twice, 2 nmol SIINFEKL equivalents per mouse with IFA
Description: in vivo CTL response by ELISPOT IFN-γ assay. C57BL/6 mice were immunized subcutaneously with each immunogen (2 nmol […] equivalents per mouse) together with incomplete Freunds Adjuvants (IFA; Sigma, USA) at their left flanks. The immunization was repeated at their right flanks 1 week later. At 10 days after the second immunization, mice were sacrificed, and the spleens were harvested. The spleens of the sacrificed mice were teased into single-cell suspensions and filtered through nylon mesh […]. Red blood cells were lysed by Ammonium-Chloride-Potassium (ACK) lysing buffer. The washed and resuspended single cells were counted using Contess™ Automated Cell Counter (Invitrogen, USA). Splenocytes (8×10^6/mL) were incubated in RPMI-1640 medium supplemented with 10% heat inactivated fetal calf serum, 2 mM glutamine, 100 units/mL penicillin and 100 μg/mL streptomycin (Invitrogen, USA), in a 14 mL polypropylene tissue culture tube for 48 hours, with or without […] peptide (SEQ ID NO: 22) (2.5 μg/mL). The cells were then washed and recounted. 2×10^5 live cells in 100 μL medium were then loaded into wells of 96-well Filtration plates (Millipore, USA) coated with […] of capture anti-mouse IFN-γ mAb (Clone: R4-6A2, Biolegend, USA). Triplicates were set up for each condition. Cells were discarded after 24 hours of culture and the wells were incubated with […] of detectionbiotinylated, anti-mouse IFN-γ mAb overnight (Clone: XMG1.2-Biotin, Biolegend, USA). After the unbound antibodies were washed away from the wells, the bound antibodies were detected using horseradish peroxidase (HRP Avidin, Biolegend, USA) together with 3-amino-9-ethyl-carbazole (AEC) substrate (Sigma, USA). The membranes on the bottom of the wells were peeled off, and color spots on the membrane were scanned. The spots were automatically counted using ImageJ software.
Animal immunization. C57BL/6 mice were immunized by the subcutaneous injection of 2 nmol iTEP NP vaccines and incomplete Freunds Adjuvants (IFA; Sigma, USA) at their left flanks. Immunization was repeated at their right flanks after 1 week. On day 10 after the second immunization, mice were sacrificed, and the spleens were harvested.

DC2.4 cells = assay: Presentation of the CTL epitope […] by DCs (flow cytometry); assay type: cell-based, murine; conditions: 16 h incubation with DC2.4 cells
Protocol: Presentation of the CTL epitope, […], by DCs. Cells of a murine DC line (DC2.4, a gift from K. Rock)^(32) were plated at 2.5×10^5/500 μL/well in 24-well plates. 500 μL of OVA, […] peptide (SEQ ID NO: 22), or iTEPB-iTEPA-pOVA NP (SEQ ID NO: 56) (iTEP-pOVA NP hereafter) were dissolved in cell culture media and added to the wells containing DCs. The cells were further cultured for 16 hrs. at 37° C. with 5% CO2 before they were collected and washed with PBS. The MHC class I complex, H-2kb/[…] presented on DC surface was stained with a PE-tagged monoclonal antibody 25-D1.16 (Biolegend, 1:100 dilution) and quantified with flow cytometry (5×10^4 events collected per sample). The data are presented as MFI normalized to the MFI of untreated DC2.4 cells.
Presentation of […] epitope vaccine by DCs. The presentation was studied as previously described (Cho et al., J Drug Target, 2015; p 1-12). The concentration of iTEP-vaccine fusions (NPs) used in this experiment was 5 μM. The results of presentation were shown as mean fluorescence intensity (MFI) of 5000 treated, live cells in a given treatment, which were normalized to the MFI value of untreated DC2.4 cells.

[1] = Thermally-induced reversible phase transition (turbidity OD350 vs temperature); assay type: physicochemical; conditions: for Tt (cooling) / Tt (heating): 25 μM in H2O
Description: Characterization of thermally-induced, reversible, inverse phase transition of iTEPs and the iTEPB-iTEPA-pOVA fusion. The phase transitions of iTEP or iTEP fusions were characterized by turbidity changes of sample solutions as a function of temperature. Specifically, the optical density at 350 nm (OD350) of a sample solution was monitored using an UV-visible spectrophotometer equipped with a multi-cell thermoelectric temperature controller (Cary 300, Varian Instruments, Walnut Creek, CA) while the solution was heated from 20° C. to 80° C. and then cooled to 20° C. at a rate of 1° C./min. The maximum first derivative of the turbidity curve of a sample was identified. The transition temperature (Tt) of the sample is the temperature that corresponds to the maximum derivative.

[2] = Hydrodynamic diameter by dynamic light scattering (DLS); assay type: physicochemical
Protocol: Characterization of the size of iTEPB-pOVA and iTEPB-iTEPA-pOVA fusions. The particle size distribution of the iTEP fusions was determined by dynamic light scattering (DLS) using a Zetasizer Nano-ZS instrument (Malvern Instruments, Malvern, UK) as previously described.^(29) The fusions were prepared at 5 μM and 25 μM in PBS and equilibrated at 37° C. for the measurement. The reported results represented the average particle size by number.
Dynamic light scattering (DLS) measurement. The measurement was carried out as previously described. iTEP, iTEP-MPBH-ABA-Sali conjugate, or PTX NP were measured at 25 μM in PBS at 37° C. using a Malvern Zetasizer Nano system (Malvern, Chester County, PA, USA).
Characterization of hydrodynamic diameters of iTEP-vaccine fusions. Hydrodynamic diameters of iTEP-vaccine fusions were determined by dynamic light scattering (DLS) using a Zetasizer Nano-ZS instrument (Malvern Instruments, Malvern, UK) as previously described (Zhao et al., Mol Pharm, 2014; 11(8):2703-12). The samples were resuspended at concentrations of 5, 25, 50, and 100 μM in PBS and sat at room temperature overnight before measurement. Some samples were kept in 5% C02 at 37° C. for 16 h before DLS measurement. Hydrodynamic diameter results of the sample of 5 μM concentration were reported because they were not affected by the used sample concentrations. Hydrodynamic diameters were presented using the size-by-number distribution approach. Z-average values and sizes-by-intensity data, however, were also reported.

## SIINFEKL [reference compound]
B3Z cells
  activation of B3Z cells: highest activity among all treatments
C57BL/6 mice
  SIINFEKL-restricted activated splenocytes (INF-γ ELISPOT): 60 spots per million seeded splenocytes
DC2.4 cells
  presentation of SIINFEKL by DCs: much stronger

## G(VPGLGAGAG)96GG [iTEPD]
[1]
  Relative Hydrophobicity: High
  Tt (cooling): 35.20 ± 0.57 °C
  Tt (heating): 38.6 °C and 38.60 ± 1.20 °C
[1]; 5 μM
  (heating) Tt: 42.3 °C

B1: G(GVLPGVG)28GG (protein)
chain: GGAGVPGGAGVPGGAGVPGGAGVPGGAGVPGGAGVPGGAGVPGGAGVPGGAGVPGGAGVPGGAGVPGGAGVPGGAGVPGGAGVPGGAGVPGGAGVPGGAGVPGGAGVPGGAGVPGGAGVPGGAGVPGGAGVPGGAGVPGGAGVPGGAGVPGGAGVPGGAGVPGGAGVPGGAGVPGGAGVPGGAGVPGGAGVPGGAGVPGGAGVPGGAGVPGGAGVPGGAGVPGGAGVPGGAGVPGGAGVPGGAGVPGGAGVPGGAGVPGGAGVPGGAGVPGGAGVPGGAGVPGGAGVPGGAGVPGGAGVPGGAGVPGGAGVPGGAGVPGGAGVPGGAGVPGGAGVPGGAGVPGGAGVPGGAGVPGGAGVPGGAGVPGGAGVPGGAGVPGGAGVPGGAGVPGGAGVPGGAGVPGGAGVPGGAGVPGGAGVPGGG
[1]
  Relative Hydrophobicity: High
  Tt (cooling): 29.70 ± 0.05 °C
  Tt (heating): 33.30 ± 0.09 °C

B2: iTEPB-pOVA: a fusion of the hydrophilic iTEPB and the vaccine, soluble (SEQ ID NO: 57) (protein)
chain: GAGVPGGAGVPGGAGVPGGAGVPGGAGVPGGAGVPGGAGVPGGAGVPGGAGVPGGAGVPGGAGVPGGAGVPGGAGVPGGAGVPGGAGVPGGAGVPGGAGVPGGAGVPGGAGVPGGAGVPGGAGVPGGAGVPGGAGVPGGAGVPGGAGVPGGAGVPGGAGVPGGAGVPGGAGVPGGAGVPGGAGVPGGAGVPGGAGVPGGAGVPGGAGVPGGAGVPGGAGVPGGAGVPGGAGVPGGAGVPGGAGVPGGAGVPGGAGVPGGAGVPGGAGVPGGAGVPGGAGVPGGAGVPGGAGVPGGAGVPGGAGVPGGAGVPGGAGVPGGAGVPGGAGVPGGAGVPGGAGVPGGAGVPGGAGVPGGAGVPGGAGVPGGAGVPGGAGVPGGAGVPGGAGVPGGAGVPGGAGVPGGAGVPGGAGVPGGAGVPGCGGGGGGGGCGGGGGGGGCGGGGGGGGCGGGGGGGGCGGGGGGGGCGGGGGGGGCGGGGGGGGCGGGGGGGG
[2]; 25 μM in PBS, 37° C., by number
  mean diameter / size (DLS): less than 10 nm

B3: NH2-(GAGVPG)70-(…)8-COOH (protein)
chain: GGAGVPGGAGVPGGAGVPGGAGVPGGAGVPGGAGVPGGAGVPGGAGVPGGAGVPGGAGVPGGAGVPGGAGVPGGAGVPGGAGVPGGAGVPGGAGVPGGAGVPGGAGVPGGAGVPGGAGVPGGAGVPGGAGVPGGAGVPGGAGVPGGAGVPGGAGVPGGAGVPGGAGVPGGAGVPGGAGVPGGAGVPGGAGVPGGAGVPGGAGVPGGAGVPGGAGVPGGAGVPGGAGVPGGAGVPGGAGVPGGAGVPGGAGVPGGAGVPGGAGVPGGAGVPGGAGVPGGAGVPGGAGVPGGAGVPGGAGVPGGAGVPGGAGVPGGAGVPGGAGVPGGAGVPGGAGVPGGAGVPGGAGVPGGAGVPGGAGVPGGAGVPGGAGVPGGAGVPGGAGVPGGAGVPGGAGVPGGAGVPGGAGVPGGAGVPGGAGVPGGGVLPGVGGVLPGVGGVLPGVGGVLPGVGGVLPGVGGVLPGVGGVLPGVGGVLPGVGGVLPGVGGVLPGVGGVLPGVGGVLPGVGGVLPGVGGVLPGVGGVLPGVGGVLPGVGGVLPGVGGVLPGVGGVLPGVGGVLPGVGGVLPGVGGVLPGVGGVLPGVGGVLPGVGGVLPGVGGVLPGVGGVLPGVGGVLPGVGGVLPGVGGVLPGVGGVLPGVGGVLPGVGGVLPGVGGVLPGVGGVLPGVGGVLPGVGGVLPGVGGVLPGVGGVLPGVGGVLPGVGGVLPGVGGVLPGVGGVLPGVGGVLPGVGGVLPGVGGVLPGVGGVLPGVGGVLPGVGGVLPGVGGVLPGVGGVLPGVGGVLPGVGGVLPGVGGVLPGVGGVLPGVGGVLPGVGG
[2]; 25 μM in PBS at 37° C.
  hydrodynamic diameter (DLS): 6.63±1.25 nm

B4: ovalbumin (protein)
chain: GSIGAASMEFCFDVFKELKVHHANENIFYCPIAIMSALAMVYLGAKDSTRTQINKVVRFDKLPGFGDSIEAQCGTSVNVHSSLRDILNQITKPNDVYSFSLASRLYAEERYPILPEYLQCVKELYRGGLEPINFQTAADQARELINSWVESQTNGIIRNVLQPSSVDSQTAMVLVNAIVFKGLWEKAFKDEDTQAMPFRVTEQESKPVQMMYQIGLFRVASMASEKMKILELPFASGTMSMLVLLPDEVSGLEQLESIINFEKLTEWTSSNVMEERKIKVYLPRMKMEEKYNLTSVLMAMGITDVFSSSANLSGISSAESLKISQAVHAAHAEINEAGREVVGSAEAGVDAASVSEEFRADHPFLFCIKHIATNAVLFFGRCVSP
notes: positive control protein antigen
C57BL/6 mice
  SIINFEKL-restricted activated splenocytes (INF-γ ELISPOT): 61 spots per million seeded splenocytes

B5: G(GAGVPG)70GG (protein)
chain: GVPGFGAGAGVPGFGAGAGVPGFGAGAGVPGFGAGAGVPGFGAGAGVPGFGAGAGVPGFGAGAGVPGFGAGAGVPGFGAGAGVPGFGAGAGVPGFGAGAGVPGFGAGAGVPGFGAGAGVPGFGAGAGVPGFGAGAGVPGFGAGAGVPGFGAGAGVPGFGAGAGVPGFGAGAGVPGFGAGAGVPGFGAGAGGG
[1]
  Relative Hydrophobicity: Low
[1]; in H2O, tested temperature range 20-80° C.
  temperature of coacervate formation: did not form coacervates
